Laboratory results from patent US20010029022A1.

Target: CDK2 kinase complex (cyclin not given) (UniProt P24941)
Test: cell-based or functional assay

B1: GST-HPV6b E7 (protein)
chain: MHGRHVTLKDIVLDLQPPDPVGLHCYEQLVDSSEDEVDEVDGQDSQPLKQHFQIVTCCCGCDSNVRLVVQCTETDIREVQQLLLGTLNIVCPICAPKT
In the case of B1, the CDK2 histone kinase activity, fold activation is reported as 15.8 fold.
